Positions count from the first letter of the chain named.

The labels stand for the following.
B1: mAb 5.52.1 (antibody, V domains shown)
VH: QVQLVESGGGVVQPGRSLRLSCAASGFTFSSYGMHWVRQAPGKGLEWVAVRWYDESNKYYADSVKGRFTISRDNSKNTLYLQMNSLRAEDTAVYYCARDPFETGTTFDYWGQGTLVTVSS
VL: DIQMTQSPSSVSASVGDRVTITCRASQGISSWLAWYQQKPGKAPKLLIYAVSSLESGVPSRFSGSGSGTDFTLTISSLQPEDFATYYCQQALTFGGGTKVEIKR
notes: Human hybridoma IgG (XenoMouse); the line 5.52 has entries of its own (347, 349; light chain L2) that differ from the clone 5.52.1 (L5); also called x5.52
B2: mAb 5.28.1 (antibody, V domains shown)
VH: EVQLVESGGIVVQPGGSLRLSCAASGFTFDDYTMHWVRQTPGKGLEWVSLISWDGGSTYYADSVKGRFTISRDNSKNSLYLQMNSLRTEDTALYYCAKDIDIAVAGTGFDHWGQGTLVTVSS
VL: EIVMTQSPATLSVSPGERATLSCRASQSVTSNLAWYQQKPGQAPRLLIYGALIRATGIPARFSGSGSGTEFTLTISSLQSEDFAVYYCQQYNNWPFTFGPGTKVDIKR
notes: Human hybridoma IgG (XenoMouse); also called x5.28
B3: mAb 5.101.1 (antibody, V domains shown)
VH: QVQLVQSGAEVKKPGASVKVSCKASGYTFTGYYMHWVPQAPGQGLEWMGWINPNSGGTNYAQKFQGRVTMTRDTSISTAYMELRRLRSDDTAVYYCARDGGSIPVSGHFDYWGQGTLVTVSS
VL: EIVMTQSPATLSVSPGERATLSCRASQSLISNLAWYQQKPGQAPRLLIFGASTRATGIPARFSGSGSGTEFTLTISSLQSEDFAVYYCHQYNNWWTFGQGTKVEIKR
notes: Human hybridoma IgG (XenoMouse); also called x5.101
B4: mAb 5.86.1 (antibody, V domains shown)
VH: QVQLVQSGAEVKKPGASVKVSCKASGYTFTGYHMYWVRQAPGQGLEWLGWINPNSGGTNYAQKFQGRVTMTRDTSISTAYMELSRLRSDDTAVYYCVRDQGIAAAGPFDYWCQGTLVTVSS
VL: DIRMTQSPSSLSASVGDRVTITCRASQRISTYLNWYQQKPGKAPKFLIYAASSLQSGVPSRFSGSGSGTDFTLTISSLQPEDFATYYCQQSYTTPFTFGPGTKVDIKR
notes: Human hybridoma IgG (XenoMouse); also called x5.86
B5: mAb 5.103.1 (antibody, V domains shown)
VH: B4 VH with H33Y, M34L, R38P, L48M, N52S, V97A, G101V, A104V, C112A
VL: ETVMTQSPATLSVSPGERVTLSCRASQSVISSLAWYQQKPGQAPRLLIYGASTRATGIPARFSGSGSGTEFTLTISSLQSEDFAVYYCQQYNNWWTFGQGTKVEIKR
notes: Human hybridoma IgG (XenoMouse); also called 5.103.3; x5.103
B6: mAb 3.19.3 (antibody, V domains shown)
VH: QVQLVESGGGVVQPGRSLRLSCAASGFTFTNYGMHWGRQAPGKGLEWVAVISHDGNNKYYVDSVKGRFTISRDNSKNTLYLQMNSLRAEDTAVYYCAREGIDFWSGLNWFDPWGQGTLVTVSS
VL: EIVLTQSPGTLSLSPGERATLSCRASQSITGSYLAWYQQKPGQAPRLLICGASSWATGIPDRFSGSGSGTDFTLTISRLEPEDFAVYYCQQYSSSPITFGQGTRLEIKR
notes: Human hybridoma IgG (XenoMouse); also called x3.19
B7: mAb 5.56.1 (antibody, V domains shown)
VH: QVQLVESGGGVVQPGRSLRLSCAASGFTFSSYGMHWVRQAPGKGLEWVAVIWYDGSNKYYADSVKGRFTISRDNSKNTLYLQMNSLRAEDTAVYYCAREDNWNFYFDYWGQGTLVTVSS
VL: DIQMTQSPSSLSASVGDRVTITCRASQGISYYLAWYQQKPGKVPKLLIYAASTLQSGVPSRFSGSGSGTDFTLTISSLQPEDVATYYCQKYNSAPFTFGPGTKVDIKR
notes: Human hybridoma IgG (XenoMouse); also called x5.56
B8: mAb 3.31.2 (antibody, V domains shown)
VH: EVQLVESGGGLVQPGGSLRLSCAASGFTFSSYWMSWVRQAPGKGLEWVANIKQDGSDKYYVDSVKGRFTISRDNAKNSLYLRMNSLRAEDTAVFYCARDMGSGWFDYWGQGTLVTVSS
VL: B3 VL with I2V, L29V, I30G, F49Y, Y87C, H89Q, N93H
notes: Human hybridoma IgG (XenoMouse); also called x3.31

The first assay concerns the target T1, Mouse/Human Ang-2 StuI chimeric molecule (mouse; human, UniProt O35608 19-496).
T1 construct: also called M/H Stul 310-496
T1 chain: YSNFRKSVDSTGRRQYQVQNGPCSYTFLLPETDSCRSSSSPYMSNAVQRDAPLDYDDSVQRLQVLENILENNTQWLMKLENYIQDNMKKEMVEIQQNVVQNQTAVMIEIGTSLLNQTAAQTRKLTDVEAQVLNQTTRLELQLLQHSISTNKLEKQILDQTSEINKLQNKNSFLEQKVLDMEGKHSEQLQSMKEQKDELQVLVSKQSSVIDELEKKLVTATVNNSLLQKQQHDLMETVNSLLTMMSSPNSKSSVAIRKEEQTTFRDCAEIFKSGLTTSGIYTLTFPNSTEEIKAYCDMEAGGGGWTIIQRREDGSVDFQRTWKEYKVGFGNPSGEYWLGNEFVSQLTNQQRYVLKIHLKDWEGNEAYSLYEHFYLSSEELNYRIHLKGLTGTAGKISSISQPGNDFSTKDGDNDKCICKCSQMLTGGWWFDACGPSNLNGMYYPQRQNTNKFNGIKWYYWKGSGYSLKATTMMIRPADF
The experiment in a line: ELISA.
Regarding B1, the “% of binding to human Ang-2” value came to 100%.

In the case of B2, the “% of binding to human Ang-2” value is 100%.

For the molecule B3, the “% of binding to human Ang-2” value amounted to 100%.

As to B4, the “% of binding to human Ang-2” value came to 100%.

As to B5, the “% of binding to human Ang-2” value was 100%.

With B6, the “% of binding to human Ang-2” value turned out to be 100%.

On to B7, for which the “% of binding to human Ang-2” value came out at 100%.

In the next assay the target is T2, Mouse/Human chimeric Ang-2 with the human StuI-TfiI fragment (mouse/human chimera, UniProt O35608 19-496).
T2 construct: also called Stu-Tfil 310-400
T2 chain: T1 chain with K386T, G393A, N403S, G410S, T424S, M440Q, R445K
The experiment in a line: ELISA.
Regarding B1, the “% of binding to human Ang-2” value came out at 100%.

As for B2, the “% of binding to human Ang-2” value turned out to be 100%.

Regarding B3, the “% of binding to human Ang-2” value worked out at 28%.

With B4, the “% of binding to human Ang-2” value turned out to be 23%.

Take B6: the “% of binding to human Ang-2” value amounted to 100%.

On to B7, for which the “% of binding to human Ang-2” value turned out to be 100%.

Another assay addresses T3, human Ang-2 V345M (human, UniProt O15123 19-496).
T3 sequence: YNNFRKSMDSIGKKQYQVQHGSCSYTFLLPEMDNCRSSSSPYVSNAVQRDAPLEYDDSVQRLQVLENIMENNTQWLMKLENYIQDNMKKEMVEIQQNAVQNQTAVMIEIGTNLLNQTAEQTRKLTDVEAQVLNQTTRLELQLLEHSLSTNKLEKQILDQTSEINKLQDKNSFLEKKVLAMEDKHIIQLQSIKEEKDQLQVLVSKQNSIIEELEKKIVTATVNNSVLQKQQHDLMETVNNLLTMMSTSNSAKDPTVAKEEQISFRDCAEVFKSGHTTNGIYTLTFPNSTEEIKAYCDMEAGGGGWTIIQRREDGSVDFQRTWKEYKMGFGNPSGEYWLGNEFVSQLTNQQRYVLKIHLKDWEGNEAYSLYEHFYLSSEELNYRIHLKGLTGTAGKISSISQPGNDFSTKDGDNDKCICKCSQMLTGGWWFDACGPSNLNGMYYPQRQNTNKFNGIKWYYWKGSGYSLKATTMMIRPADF
Description: ELISA.
Regarding B1, the “% of binding to human Ang-2” value came out at 100%.

Take B2: the “% of binding to human Ang-2” value came out at 100%.

For the molecule B3, the “% of binding to human Ang-2” value is 100%.

In the case of B8, the “% of binding to human Ang-2” value amounted to 100%.

As for B4, the “% of binding to human Ang-2” value turned out to be 100%.

Consider B5, for which the “% of binding to human Ang-2” value was found to be 100%.

With B6, the “% of binding to human Ang-2” value was 100%.

As for B7, the “% of binding to human Ang-2” value turned out to be 100%.

A further assay addresses T4, mouse Angiopoietin-2 (mouse, UniProt O35608 19-496).
T4 construct: Used as conditioned medium of transfectants; also called mAng-2; mouse Ang-2
T4 sequence: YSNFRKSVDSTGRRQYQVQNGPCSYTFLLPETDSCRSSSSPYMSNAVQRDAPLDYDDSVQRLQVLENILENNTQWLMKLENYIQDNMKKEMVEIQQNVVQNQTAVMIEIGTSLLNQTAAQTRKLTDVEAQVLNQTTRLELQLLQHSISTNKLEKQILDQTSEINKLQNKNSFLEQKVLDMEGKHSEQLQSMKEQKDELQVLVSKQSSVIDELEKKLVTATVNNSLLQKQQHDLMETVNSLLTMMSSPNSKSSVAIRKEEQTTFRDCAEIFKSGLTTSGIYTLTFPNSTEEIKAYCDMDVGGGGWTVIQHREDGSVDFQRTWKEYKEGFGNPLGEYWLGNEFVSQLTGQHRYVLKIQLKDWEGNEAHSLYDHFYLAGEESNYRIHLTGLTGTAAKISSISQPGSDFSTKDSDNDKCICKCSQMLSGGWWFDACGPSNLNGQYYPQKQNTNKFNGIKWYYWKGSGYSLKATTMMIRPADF
The experiment in a line: ELISA, recombinant mouse Ang-2.
Take B3: the binding result is recorded as “no binding”.

B4: the binding result is listed as “no binding”.

On to B5, for which the binding result is on record as “no binding”.

In the next assay the target is T5, human Angiopoietin-2 (human, UniProt O15123 19-496).
T5 construct: Mostly bought recombinant protein (R&D Systems 623-AM/CF, 623-AN; biotinylated BT623) or supernatant of transfected 293F cells; also called Ang-2; rhAng-2
T5 sequence: T3 sequence with M326V
The experiment in a line: Biacore, mAb captured. The procedure:
(§1) The label-free surface plasmon resonance (SPR), or Biacore, was utilized to measure the antibody affinity to the antigen. For this purpose, a high-density goat anti-human antibody surface over a CM5 Biacore chip was prepared using routine amine coupling. All the purified mAbs were diluted to approximately 8 μg/ml in HBS-P running buffer containing 100 μg/ml BSA and 10 mg/mL carboxymethyldextran. Each mAb was captured on a separate surface using a 42-second contact time, and a 5-minute wash for stabilization of the mAb baseline.
(§2) Data were fit globally to a 1:1 interaction model to determine the binding kinetics.
Take B1: the Kd is at most 0.75 nM and the kon came to 13000 M⁻¹ s⁻¹.

B2: the Kd is at most 0.04 nM and the kon was 250000 M⁻¹ s⁻¹.

Take B3: the Kd came out at 0.581 nM, the koff was 8.7e-05 s⁻¹ and the kon came out at 150000 M⁻¹ s⁻¹.

With B8, the Kd is at most 0.051 nM and the kon amounted to 190000 M⁻¹ s⁻¹.

For the molecule B4, the Kd came to 0.744 nM, the koff is 0.00011 s⁻¹ and the kon was determined as 150000 M⁻¹ s⁻¹.

For the molecule B5, the Kd is at most 0.045 nM and the kon worked out at 220000 M⁻¹ s⁻¹.

Molecule B6 gave a Kd of at most 0.111 nM and a kon of 90000 M⁻¹ s⁻¹.

For the molecule B7, the dissociation constant (Kd) is at most 0.052 nM and the kon was 190000 M⁻¹ s⁻¹.

The target in another assay is T5, human Angiopoietin-2. Description: Biacore; kd held constant (*). The procedure: as §1, §2
Take B2: the koff was at most 1e-05 s⁻¹.

Take B8: the koff was at most 1e-05 s⁻¹.

B5 returned a koff of at most 1e-05 s⁻¹.

B6 came in with a koff of at most 1e-05 s⁻¹.

For the molecule B7, the koff was at most 1e-05 s⁻¹.

For the origin of these results see patent US20080267971A1 (published 2008).
